Reference: article doi:10.1101/841569 (bioRxiv, 2019)

Target: the molecule itself
Test: crystal structure

B1: Mycobacterium tuberculosis MenD (2-succinyl-5-enolpyruvyl-6-hydroxy-3-cyclohexadiene-1-carboxylate synthase, SEPHCHC synthase) (enzyme)
chain: MNPSTTQARVVVDELIRGGVRDVVLCPGSRNAPLAFALQDADRSGRIRLHVRIDERTAGYLAIGLAIGAGAPVCVAMTSGTAVANLGPAVVEANYARVPLIVLSANRPYELLGTGANQTMEQLGYFGTQVRASISLGLAEDAPERTSALNATWRSATCRVLAAATGARTANAGPVHFDIPLREPLVPDPEPLGAVTPPGRPAGKPWTYTPPVTFDQPLDIDLSVDTVVISGHGAGVHPNLAALPTVAEPTAPRSGDNPLHPLALPLLRPQQVIMLGRPTLHRPVSVLLADAEVPVFALTTGPRWPDVSGNSQATGTRAVTTGAPRPAWLDRCAAMNRHAIAAVREQLAAHPLTTGLHVAAAVSHALRPGDQLVLGASNPVRDVALAGLDTRGIRVRSNRGVAGIDGTVSTAIGAALAYEGAHERTGSPDSPPRTIALIGDLTFVHDSSGLLIGPTEPIPRSLTIVVSNDNGGGIFELLEQGDPRFSDVSSRIFGTPHDVDVGALCRAYHVESRQIEVDELGPTLDQPGAGMRVLEVKADRSSLRQLHAAIKAAL
- stoichiometry N: 4
